# Source: patent US20190202921A1 (Five Prime, published 2019)
# Where a chain is given by its changes, count along the chain named. Names may count otherwise.
# T1: rat PD-1 (rat, UniProt D3ZIN8 25-287)
# T1 sequence: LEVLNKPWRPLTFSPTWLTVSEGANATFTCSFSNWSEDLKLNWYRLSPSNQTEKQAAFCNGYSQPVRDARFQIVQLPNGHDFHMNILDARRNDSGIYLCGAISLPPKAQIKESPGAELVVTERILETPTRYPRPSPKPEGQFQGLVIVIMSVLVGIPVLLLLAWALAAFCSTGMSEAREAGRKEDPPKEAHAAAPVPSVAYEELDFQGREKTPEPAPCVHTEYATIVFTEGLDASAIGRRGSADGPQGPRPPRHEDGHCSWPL
# T2: cynomolgus monkey CSF1R ECD (cynomolgus monkey, UniProt P07333 20-505 (human entry))
# T2 construct: also called cynoCSF1R ECD
# T2 chain: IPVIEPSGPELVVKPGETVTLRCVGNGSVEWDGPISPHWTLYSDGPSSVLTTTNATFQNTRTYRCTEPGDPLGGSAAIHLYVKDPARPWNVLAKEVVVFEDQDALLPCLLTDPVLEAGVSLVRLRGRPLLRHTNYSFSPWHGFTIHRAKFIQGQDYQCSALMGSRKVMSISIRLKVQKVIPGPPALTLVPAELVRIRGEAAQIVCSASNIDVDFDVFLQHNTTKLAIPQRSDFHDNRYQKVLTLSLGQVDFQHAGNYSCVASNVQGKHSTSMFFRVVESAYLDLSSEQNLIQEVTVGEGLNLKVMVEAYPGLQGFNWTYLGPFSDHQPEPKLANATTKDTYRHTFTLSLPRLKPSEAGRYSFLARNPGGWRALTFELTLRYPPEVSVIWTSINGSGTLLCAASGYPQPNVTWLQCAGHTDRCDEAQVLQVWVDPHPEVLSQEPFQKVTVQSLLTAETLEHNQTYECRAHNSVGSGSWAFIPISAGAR
# T3: mouse CSF1R ECD (mouse, UniProt P09581 20-515)
# T3 construct: extracellular domain
# T3 sequence (looked up): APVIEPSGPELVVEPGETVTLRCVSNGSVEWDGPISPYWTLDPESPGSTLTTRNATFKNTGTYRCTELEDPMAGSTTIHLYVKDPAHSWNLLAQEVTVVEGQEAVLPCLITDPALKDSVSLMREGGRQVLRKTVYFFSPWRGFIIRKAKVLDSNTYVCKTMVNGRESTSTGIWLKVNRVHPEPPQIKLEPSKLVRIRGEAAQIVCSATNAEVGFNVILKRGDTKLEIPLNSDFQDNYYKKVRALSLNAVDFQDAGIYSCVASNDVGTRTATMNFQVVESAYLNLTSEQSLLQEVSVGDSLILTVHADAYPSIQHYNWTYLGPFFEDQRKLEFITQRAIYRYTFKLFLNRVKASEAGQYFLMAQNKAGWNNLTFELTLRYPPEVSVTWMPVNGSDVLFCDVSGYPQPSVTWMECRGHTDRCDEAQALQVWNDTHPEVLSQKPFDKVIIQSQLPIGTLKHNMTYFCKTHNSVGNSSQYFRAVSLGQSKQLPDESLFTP
# B1: nivolumab (antibody, human IgG4 S228P, kappa, V domains shown)
# VH: QVQLVESGGGVVQPGRSLRLDCKASGITFSNSGMHWVRQAPGKGLEWVAVIWYDGSKRYYADSVKGRFTISRDNSKNTLFLQMNSLRAEDTAVYYCATNDDYWGQGTLVTVSS
# VL: EIVLTQSPATLSLSPGERATLSCRASQSVSSYLAWYQQKPGQAPRLLIYDASNRATGIPARFSGSGSGTDFTLTISSLEPEDFAVYYCQQSSNWPRTFGQGTKVEIKR
# notes: Fully human IgG4 (S228P); also called Opdivo; 5C4
# B2: huAb2 (antibody, human IgG4 S228P, kappa)
# heavy: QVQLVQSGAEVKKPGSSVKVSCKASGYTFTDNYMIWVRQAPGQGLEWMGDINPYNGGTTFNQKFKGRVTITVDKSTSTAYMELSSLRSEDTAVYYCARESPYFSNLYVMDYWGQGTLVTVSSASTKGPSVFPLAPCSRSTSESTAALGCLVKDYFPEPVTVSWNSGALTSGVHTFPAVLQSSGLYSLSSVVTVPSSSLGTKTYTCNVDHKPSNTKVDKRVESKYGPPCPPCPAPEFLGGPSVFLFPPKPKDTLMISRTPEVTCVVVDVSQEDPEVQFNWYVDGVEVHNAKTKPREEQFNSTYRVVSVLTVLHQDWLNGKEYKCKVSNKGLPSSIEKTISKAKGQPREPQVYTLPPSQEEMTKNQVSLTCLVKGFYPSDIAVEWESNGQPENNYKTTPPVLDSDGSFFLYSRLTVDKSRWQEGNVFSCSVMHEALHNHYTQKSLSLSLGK
# light: EIVLTQSPATLSLSPGERATLSCKASQSVDYDGDNYMNWYQQKPGQAPRLLIYAASNLESGIPARFSGSGSGTDFTLTISSLEPEDFAVYYCHLSNEDLSTFGGGTKVEIKRTVAAPSVFIFPPSDEQLKSGTASVVCLLNNFYPREAKVQWKVDNALQSGNSQESVTEQDSKDSTYSLSSTLTLSKADYEKHKVYACEVTHQGLSSPVTKSFNRGEC
# notes: also called huAb 0301-L0H1; h0301-H1 / h0301-L0
# B3: huAb1 (antibody, human IgG4 S228P, kappa)
# heavy: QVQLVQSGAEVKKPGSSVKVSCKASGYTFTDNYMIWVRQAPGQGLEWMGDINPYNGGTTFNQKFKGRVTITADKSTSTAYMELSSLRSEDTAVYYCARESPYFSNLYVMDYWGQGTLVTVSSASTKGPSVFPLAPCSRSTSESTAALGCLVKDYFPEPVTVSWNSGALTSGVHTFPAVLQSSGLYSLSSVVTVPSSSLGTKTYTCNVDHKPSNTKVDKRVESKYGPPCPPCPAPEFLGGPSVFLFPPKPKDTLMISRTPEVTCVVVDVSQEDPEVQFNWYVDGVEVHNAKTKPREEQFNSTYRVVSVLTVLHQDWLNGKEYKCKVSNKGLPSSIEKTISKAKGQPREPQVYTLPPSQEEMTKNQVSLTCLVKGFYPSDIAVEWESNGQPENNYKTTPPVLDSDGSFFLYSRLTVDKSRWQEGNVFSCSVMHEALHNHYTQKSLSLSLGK
# light: B2 light
# notes: also called huAb 0301-L0H0; FPA008
# B4: huAb3 (antibody, human IgG4 S228P, kappa)
# heavy: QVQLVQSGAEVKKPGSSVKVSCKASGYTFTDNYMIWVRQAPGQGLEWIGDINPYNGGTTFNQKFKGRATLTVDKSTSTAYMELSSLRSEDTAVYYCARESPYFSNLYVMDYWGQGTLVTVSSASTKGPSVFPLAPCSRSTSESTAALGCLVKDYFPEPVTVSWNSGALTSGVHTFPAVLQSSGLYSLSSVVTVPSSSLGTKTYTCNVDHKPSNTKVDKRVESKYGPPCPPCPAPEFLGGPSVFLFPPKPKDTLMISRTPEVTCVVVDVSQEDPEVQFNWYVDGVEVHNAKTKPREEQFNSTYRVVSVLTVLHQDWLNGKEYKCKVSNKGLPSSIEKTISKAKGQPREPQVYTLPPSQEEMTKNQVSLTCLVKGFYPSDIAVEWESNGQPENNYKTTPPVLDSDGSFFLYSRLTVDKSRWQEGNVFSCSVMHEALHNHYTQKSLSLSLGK
# light: B2 light
# notes: also called huAb 0301-L0H2; h0301-H2 / h0301-L0
# B5: huAb4 (antibody, human IgG4 S228P, kappa)
# heavy: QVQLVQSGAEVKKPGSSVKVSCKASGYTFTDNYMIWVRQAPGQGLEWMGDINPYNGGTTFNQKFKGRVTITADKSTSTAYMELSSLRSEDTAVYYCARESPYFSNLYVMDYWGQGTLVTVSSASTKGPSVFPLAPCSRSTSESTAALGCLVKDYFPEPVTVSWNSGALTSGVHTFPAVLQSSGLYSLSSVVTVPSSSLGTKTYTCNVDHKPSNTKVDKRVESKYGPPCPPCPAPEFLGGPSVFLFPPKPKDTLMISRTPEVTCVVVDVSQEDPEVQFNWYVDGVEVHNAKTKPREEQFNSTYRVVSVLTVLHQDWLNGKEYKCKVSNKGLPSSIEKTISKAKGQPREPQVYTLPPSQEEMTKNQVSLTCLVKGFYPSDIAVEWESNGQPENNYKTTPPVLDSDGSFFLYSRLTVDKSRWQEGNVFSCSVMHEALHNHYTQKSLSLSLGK
# light: B2 light with E1N
# notes: also called huAb 0301-L1H0; h0301-H0 / h0301-L1
# B6: huAb6 (antibody, human IgG4 S228P, kappa)
# heavy: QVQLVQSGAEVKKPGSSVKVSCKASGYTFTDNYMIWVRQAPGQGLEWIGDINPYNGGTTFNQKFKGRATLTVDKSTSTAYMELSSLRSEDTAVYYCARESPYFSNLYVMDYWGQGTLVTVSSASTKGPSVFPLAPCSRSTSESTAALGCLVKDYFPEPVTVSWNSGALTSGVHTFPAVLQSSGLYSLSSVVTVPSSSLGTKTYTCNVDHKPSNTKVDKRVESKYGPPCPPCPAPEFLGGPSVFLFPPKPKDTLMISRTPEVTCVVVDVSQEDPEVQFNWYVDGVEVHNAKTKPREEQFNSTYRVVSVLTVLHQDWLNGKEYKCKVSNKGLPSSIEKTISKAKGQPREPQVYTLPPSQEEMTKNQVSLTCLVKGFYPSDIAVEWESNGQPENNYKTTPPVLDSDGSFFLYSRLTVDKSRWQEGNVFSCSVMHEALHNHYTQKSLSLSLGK
# light: B2 light with E1N
# notes: also called huAb 0301-L1H2; h0301-H2 / h0301-L1
# B7: huAb5 (antibody, human IgG4 S228P, kappa)
# heavy: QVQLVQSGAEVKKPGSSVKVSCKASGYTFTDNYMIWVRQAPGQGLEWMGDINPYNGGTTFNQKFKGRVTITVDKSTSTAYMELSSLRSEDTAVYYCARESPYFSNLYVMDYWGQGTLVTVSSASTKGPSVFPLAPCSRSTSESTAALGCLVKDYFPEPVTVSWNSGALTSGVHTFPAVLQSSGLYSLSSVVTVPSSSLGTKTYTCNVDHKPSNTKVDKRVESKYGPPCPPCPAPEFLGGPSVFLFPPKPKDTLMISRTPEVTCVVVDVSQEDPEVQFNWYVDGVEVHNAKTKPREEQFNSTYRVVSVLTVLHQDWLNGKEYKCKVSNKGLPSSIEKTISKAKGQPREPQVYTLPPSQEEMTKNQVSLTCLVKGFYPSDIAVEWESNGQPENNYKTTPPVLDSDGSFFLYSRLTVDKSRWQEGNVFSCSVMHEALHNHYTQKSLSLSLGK
# light: B2 light with E1N
# notes: also called huAb 0301-L1H1; h0301-H1 / h0301-L1
# B8: huAb8 (antibody, human IgG4 S228P, kappa, V domains shown)
# VH: QVQLVQSGAEVKKPGSSVKVSCKASGYTFSDFNIHWVRQAPGQGLEWMGYINPYTDVTVYNEKFKGRVTITSDKSTSTAYMELSSLRSEDTAVYYCASYFDGTFDYALDYWGQGTLVTVSS
# VL: EIVLTQSPATLSLSPGERATLSCRASESVDNYGLSFMNWYQQKPGQAPRLLIYTASNLESGIPARFSGSGSRTDFTLTISSLEPEDFAVYYCQQSKELPWTFGQGTKVEIKR
# notes: also called huAb 0302-L1H1; h0302-H1 / h0302-L1
# B9: huAb13 (antibody, human IgG4 S228P, kappa, V domains shown)
# VH: QVQLVQSGAEVKKPGSSVKVSCKASGYIFTDYNMHWVRQAPGQGLEWMGEINPNNGVVVYNQKFKGRVTITVDKSTSTAYMELSSLRSEDTAVYYCTRALYHSNFGWYFDSWGQGTLVTVSS
# VL: B8 VL with R24K, E27Q, N31Y, Y32D, L34D, F36H, R72G, S95G, K96N, L98D
# notes: also called huAb 0311-L0H1; h0311-H1 / h0311-L0
# B10: huAb15 (antibody, human IgG4 S228P, kappa, V domains shown)
# VH: B9 VH with R67T, V68T, I70L
# VL: B8 VL with R24K, E27Q, N31Y, Y32D, L34D, F36H, R72G, S95G, K96N, L98D
# notes: also called huAb 0311-L0H2; h0311-H2 / h0311-L0
# B11: huAb11 (antibody, human IgG4 S228P, kappa, V domains shown)
# VH: B8 VH with M48I, V68A, I70L
# VL: B8 VL
# notes: also called huAb 0302-L1H2; h0302-H2 / h0302-L1
# B12: huAb14 (antibody, human IgG4 S228P, kappa, V domains shown)
# VH: B9 VH
# VL: DIVLTQSPATLSLSPGERATLSCKASQSVDYDGDSHMNWYQQKPGQAPRLLIYTASNLESGIPARFSGSGSGADFTLTISSLEPEDFAVYYCQQGNEDPWTFGQGTKVEIKR
# notes: also called huAb 0311-L1H1; h0311-H1 / h0311-L1
# B13: huAb7 (antibody, human IgG4 S228P, kappa, V domains shown)
# VH: B8 VH
# VL: B8 VL with R72G
# notes: also called huAb 0302-L0H1; h0302-H1 / h0302-L0
# B14: huAb16 (antibody, human IgG4 S228P, kappa, V domains shown)
# VH: B9 VH with R67T, V68T, I70L
# VL: B12 VL
# notes: also called huAb 0311-L1H2; h0311-H2 / h0311-L1
# B15: huAb9 (antibody, human IgG4 S228P, kappa, V domains shown)
# VH: B8 VH
# VL: B8 VL with L4V, Y40F
# notes: also called huAb 0302-L2H1; h0302-H1 / h0302-L2
# B16: huAb10 (antibody, human IgG4 S228P, kappa, V domains shown)
# VH: B8 VH with M48I, V68A, I70L
# VL: B8 VL with R72G
# notes: also called huAb 0302-L0H2; h0302-H2 / h0302-L0
# B17: huAb12 (antibody, human IgG4 S228P, kappa, V domains shown)
# VH: B8 VH with M48I, V68A, I70L
# VL: B8 VL with L4V, Y40F
# notes: also called huAb 0302-L2H2; h0302-H2 / h0302-L2
# Molecular target: T1, rat PD-1
# Test: FACS analysis
row,binding result,Binder
1,no binding,B1

# Molecular target: T2, cynomolgus monkey CSF1R ECD
# Test: binding test as described in WO 2011/140249
row,binding result,Binder
1,binds,B2
2,binds,B3
3,binds,B4
4,binds,B5
5,binds,B6
6,binds,B7
7,binds,B8
8,binds,B9
9,binds,B10
10,binds,B11
11,binds,B12
12,binds,B13
13,binds,B14
14,binds,B15
15,binds,B16
16,binds,B17

# Molecular target: T3, mouse CSF1R ECD
# Test: binding test as described in WO 2011/140249
row,binding result,Binder
1,no binding,B2
2,no binding,B3
3,no binding,B4
4,no binding,B5
5,no binding,B6
6,no binding,B7
7,no binding,B8
8,no binding,B9
9,no binding,B10
10,no binding,B11
11,no binding,B12
12,no binding,B13
13,no binding,B14
14,no binding,B15
15,no binding,B16
16,no binding,B17
